From PMC1783898

Target: SARS-CoV main protease, full-length wild type (3CLpro) (SARS-CoV) (UniProt P0C6X7)
Experiment: AUC

In the case of “SARS-CoV main protease, full-length wild type (3CLpro) (from UniProt P0C6X7) (enzyme)”, the stoichiometry N is reported as 2.
